# Assay results as given in US20100323957A1 (University of California, published 2010).
# Target: wild-type EGFR kinase domain (residues 672-998 of human EGFR) with N-terminal 6-His tag, linker and TEV site (human, UniProt P00533 672-998)
# Assay: cell-based or functional assay
binder,measurement,value
SYLNGVMPPTQSFAPDPKYVSSKAL [25-residue MIG6 peptide (residues 340-364)],"IC50, inhibition of activated EGFR kinase",~100 µM
